Experimental data: patent publication US20210179717A1 (ALBERT LUDWIGS UNIVERSIT T FREIBURG, published 2021)

Experiments:
[1] = target: T1, scrambled peptide sM7 (KLSLEKQTK); experiment: solid phase binding (ELISA) with immobilized peptides
T1 construct: Scrambled control of M7
T1 peptide: KLSLEKQTK

peptide M8 (EEFRIHFT) = target: T2, peptide M8 (EEFRIHFT) (human); experiment: as above
T2 peptide: EEFRIHFT

[2] = target: human Mac-1 (αMβ2, CD11b/CD18), native, non-activated (WT) (human, UniProt P11215 17-1152; P05107 23-769); experiment: western blot of CHO cells over-expressing Mac-1
peptide M7 (EQLKKSKTL) = target: T3, peptide M7 (EQLKKSKTL) (human); experiment: solid phase binding assay, immobilized peptide M7
T3 construct: Immobilised peptide from the human Mac-1 αM I-domain
T3 peptide: EQLKKSKTL

B1: anti-M7 (mouse monoclonal antibody, clone RC3, mouse IgG2bκ) (antibody, V domains shown)
VH: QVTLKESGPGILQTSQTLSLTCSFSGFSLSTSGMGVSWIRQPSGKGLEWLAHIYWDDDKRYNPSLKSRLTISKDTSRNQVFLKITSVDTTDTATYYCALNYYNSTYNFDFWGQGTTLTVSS
VL: DIQMTQSPSSLSASLGERVSLTCRASQEISGYLSWHQQKPDGTIKRLLYSTSTLDSGVPKRFSGSRSGSDYSLTISSLESEDFADYYCLQYAISPPTFGGGTKLEIK
notes: Coupled to Alexa Fluor 647 for flow cytometry; also called anti-M7-Alexa 647
B1: no binding [1]; no binding (peptide M8 (EEFRIHFT)); binds [2]. B1: binds (peptide M7 (EQLKKSKTL)).
